These results are taken from publication PMC10099707.

The target in this assay is HDAC4 (mouse (endogenous in hippocampal tissue)) (UniProt Q6NZM9). The assay is described as follows: co-IP.
Sequence of UniProt Q6NZM9 (Q6NZM9 whole entry): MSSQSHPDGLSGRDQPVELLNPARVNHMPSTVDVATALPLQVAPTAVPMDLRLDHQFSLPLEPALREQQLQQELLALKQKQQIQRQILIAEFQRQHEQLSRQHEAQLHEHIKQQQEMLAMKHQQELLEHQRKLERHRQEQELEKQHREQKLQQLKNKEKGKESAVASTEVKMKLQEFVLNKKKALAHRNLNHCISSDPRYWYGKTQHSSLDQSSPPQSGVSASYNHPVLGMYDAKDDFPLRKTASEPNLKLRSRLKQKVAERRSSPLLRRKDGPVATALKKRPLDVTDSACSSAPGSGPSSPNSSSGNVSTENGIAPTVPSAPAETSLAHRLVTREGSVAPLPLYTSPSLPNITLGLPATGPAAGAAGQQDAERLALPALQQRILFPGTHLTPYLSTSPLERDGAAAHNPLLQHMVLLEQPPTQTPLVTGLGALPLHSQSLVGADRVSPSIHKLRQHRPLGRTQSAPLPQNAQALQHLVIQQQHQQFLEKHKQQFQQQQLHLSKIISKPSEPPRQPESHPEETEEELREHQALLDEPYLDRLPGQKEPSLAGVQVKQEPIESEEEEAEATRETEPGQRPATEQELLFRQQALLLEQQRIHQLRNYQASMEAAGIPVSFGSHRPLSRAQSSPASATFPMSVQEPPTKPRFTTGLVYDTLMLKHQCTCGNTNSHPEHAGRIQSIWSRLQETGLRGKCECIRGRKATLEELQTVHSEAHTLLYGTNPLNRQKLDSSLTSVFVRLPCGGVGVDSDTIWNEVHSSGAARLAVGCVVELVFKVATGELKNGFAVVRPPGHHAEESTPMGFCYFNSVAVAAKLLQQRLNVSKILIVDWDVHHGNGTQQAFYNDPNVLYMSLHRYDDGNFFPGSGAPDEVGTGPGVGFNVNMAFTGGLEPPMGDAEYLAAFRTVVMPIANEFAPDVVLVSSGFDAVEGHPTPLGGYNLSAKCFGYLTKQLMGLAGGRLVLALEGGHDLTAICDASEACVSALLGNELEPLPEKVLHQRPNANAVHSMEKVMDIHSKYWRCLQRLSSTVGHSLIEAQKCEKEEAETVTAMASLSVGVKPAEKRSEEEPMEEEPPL

Take “Ca2+/calmodulin‐dependent protein kinase II (CaMKII) (from UniProt P11798 1-478) (enzyme)”: the fold change AD vs WT of the co-IP band ratio CaMKII/HDAC4 (fold (AD vs WT)) was determined as 0.61.
